What is called Kd is the concentration at which binding is half-saturated.

Data on three substances can be found in PMC10470768.

For data set [1], the system named is Tde1tox H279A/D282A (catalytically inactive Ntox15 domain) (Phocaeicola vulgatus). Nature of the data set: BLI. To be noted: BLI (Octet Red96), biotinylated oligo on streptavidin sensors, Octet kinetics buffer (Sartorius), association 300 s, dissociation 600 s, one-site equilibrium …. (BLI is a label-free optical method that tracks binding on a fibre tip over time.)

For data set [2], the target named is Tdi orphan A (TdioA), orphan immunity protein. Nature of the data set: BLI; Octet Red96; hexahistidine immunity proteins (5 mg/mL) immobilised on NTA biosensors; varying concentrations of Tde1^tox H279A/D282A in Octet kinetics buffer; association 300 s, dissociation 600 s; one site fit of equilibrium binding data.
Data set [3] concerns the target Tdi orphan B (TdioB), orphan immunity protein. Described as above.
Data set [4] deals with Tdi1 (cognate immunity protein of Tde1) (Phocaeicola vulgatus). The description is as above.

Take “30-bp random-sequence biotinylated dsDNA”: the Kd in data set [1] came to 500 nM. The substance “30-nt random-sequence biotinylated ssDNA” returned a dissociation constant Kd in data set [1] of 500 nM. Regarding “Tde1^tox H279A/D282A (catalytically inactive Ntox15 domain of the Hcp-Ntox15 effector Tde1) (domain or fragment)”, the Kd was found to be 24 nM in data set [2], 19 nM in data set [3] and 18 nM in data set [4].
